# Laboratory results taken from article PMC5504291, “Bacterial lipid droplets bind to DNA via an intermediary protein that enhances survival under stress”.
# T1: MLDSR (GST-MLDSR) (Rhodococcus jostii RHA1, UniProt A0A1H4Y2R3 2-168)
# T1 sequence: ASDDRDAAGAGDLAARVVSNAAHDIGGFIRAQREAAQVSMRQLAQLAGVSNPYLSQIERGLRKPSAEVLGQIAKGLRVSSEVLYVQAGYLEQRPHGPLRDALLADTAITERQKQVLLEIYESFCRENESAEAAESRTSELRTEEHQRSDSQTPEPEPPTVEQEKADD
# B1: biotin-motif 1 (20 bp) (dsDNA)
# DNA 1: GTGCTTGCAATTGCTAGCAC
# DNA 2: GTGCTAGCAATTGCAAGCAC
# B2: biotin-43 bp (motif 1+2) (dsDNA)
# DNA 1: TCCGCTAGCTGGGTGCTAACAGAGTGCTTGCAATTGCTAGCAC
# DNA 2: GTGCTAGCAATTGCAAGCACTCTGTTAGCACCCAGCTAGCGGA
# B3: 43 bp (motif 1+2) (dsDNA)
# DNA 1: B2 DNA 1
# DNA 2: B2 DNA 2
# B4: 103 bp (dsDNA)
# DNA 1: CAATCGCCTCGACGGAGGGTCCGCTAGCTGGGTGCTAACAGAGTGCTTGCAATTGCTAGCACCCTGCTTTAGCCTTGGTTCTGCCCAGCAACACGGAGGACTG
# DNA 2: CAGTCCTCCGTGTTGCTGGGCAGAACCAAGGCTAAAGCAGGGTGCTAGCAATTGCAAGCACTCTGTTAGCACCCAGCTAGCGGACCCTCCGTCGAGGCGATTG
# B5: biotin-motif 2 (23 bp) (dsDNA)
# DNA 1: TCCGCTAGCTGGGTGCTAACAGA
# DNA 2: TCTGTTAGCACCCAGCTAGCGGA
# How the values were obtained:
# [1] = biological target: T1, MLDSR (GST-MLDSR); assay: SPR; EMSA: 20 mM Tris-HCl pH 7.5, 150 mM NaCl, 5 mM MgCl2, 1 mM EDTA, 1 mM DTT, 4% glycerol, 24 C or room temperature, 30-40 min; SPR: 20 mM Tris-HCl pH 7.5, 150 mM; conditions: protein: recombinant; tags: N-terminal GST; label: 5'-biotin on strand 1; blunt
# [2] = biological target: T1, MLDSR (GST-MLDSR); assay: SPR; 1:1 model though DNA holds two sites; EMSA: 20 mM Tris-HCl pH 7.5, 150 mM NaCl, 5 mM MgCl2, 1 mM EDTA, 1 mM DTT, 4% glycerol, 24 C or room temperature, 30-40 min; SPR: 20 mM Tris-HCl pH 7.5, 150 mM; conditions: protein: recombinant; tags: N-terminal GST; label: 5'-biotin on strand 1; blunt
# [3] = biological target: T1, MLDSR (GST-MLDSR); assay: EMSA; rough estimate by authors from Fig. 5b; EMSA: 20 mM Tris-HCl pH 7.5, 150 mM NaCl, 5 mM MgCl2, 1 mM EDTA, 1 mM DTT, 4% glycerol, 24 C or room temperature, 30-40 min; SPR: 20 mM Tris-HCl pH 7.5, 150 mM; conditions: protein: recombinant; tags: N-terminal GST; blunt
# [4] = biological target: T1, MLDSR (GST-MLDSR); assay: EMSA; EMSA: 20 mM Tris-HCl pH 7.5, 150 mM NaCl, 5 mM MgCl2, 1 mM EDTA, 1 mM DTT, 4% glycerol, 24 C or room temperature, 30-40 min; SPR: 20 mM Tris-HCl pH 7.5, 150 mM; conditions: protein: recombinant; tags: N-terminal GST; blunt
binder,measurement,setting,value
B1,Kd,[1],0.175 µM
B2,Kd,[2],0.062 µM
B3,Kd,[3],~0.442 µM
B4,binding result,[4],binds
B5,Kd,[1],5.14 µM
